The record followed here is patent US20210063414A1, “METHODS FOR PREVENTING AND/OR TREATING BONE LOSS CONDITIONS BY MODULATING IRISIN” (Dana-Farber Cancer Institute, Inc., priority 2018, published 2021).

Assay [1] has as its target integrin αV/β5 (Homo sapiens, UniProt P06756+P18084). Description: FAK phosphorylation in HEK293T cells with forced expression of integrin αV/β5. The class given is cell-based. More on the design: expressed in transfected cells; host or cells: HEK293T. To be noted: HEK293T, forced expression of integrin αV/β5, irisin 5 minutes. The protocol:
100 nM irisin was incubated with 5 nM indicated his-tag integrins followed by immunoprecipitation using Ni-NTA agaroses. Precipitated integrins and co-precipitated irisin were analyzed by immunoblot analysis. […] HEK293T cells were seeded and incubated until 50% cell density. The cells were transfected with 0.1 μg plasmids of indicated integrins. After 48 hours, the cells were incubated with Freestyle293 medium for 3 hours and were treated with indicated concentration of irisin for 5 minutes. Cells were lysed to detect the indicated protein level using immunoblot analysis. […] Sclerostin mRNA level was analyzed by qRT-PCR. […]
100 nM irisin was incubated with 5 nM indicated his-tag integrins followed by immunoprecipitation using Ni-NTA agaroses. Precipitated integrins and co-precipitated irisin were analyzed by immunoblot analysis. […] Cells were treated and analyzed as FIG. 14B except using plasmids encoding integrin α5/β1 or integrin α11/β1 (FIG. 15C) integrin αV/β1(FIG. 15D).
MLO-Y4 cells were treated and analyzed as described in FIG. 5A with addition of pretreatment of control RGD peptide, cyclo RGDyK (cRGDyK), or SB273005. […] HEK293 cells were treated and analyzed as described in FIG. 14B except the treatment of different dose of cyclo RGDyK. […] 8 weeks old male mice were treated and analyzed as described in FIG. 5D except the additional group with co-injection of 1 mg/kg SB273005. […]

For assay [2], the target named is T1, integrin αV/β1 (Homo sapiens, UniProt P05556+P06756).
T1 construct: expressed in transfected cells; host or cells: HEK293T
T1 sequence (P06756 31-889 limits assumed): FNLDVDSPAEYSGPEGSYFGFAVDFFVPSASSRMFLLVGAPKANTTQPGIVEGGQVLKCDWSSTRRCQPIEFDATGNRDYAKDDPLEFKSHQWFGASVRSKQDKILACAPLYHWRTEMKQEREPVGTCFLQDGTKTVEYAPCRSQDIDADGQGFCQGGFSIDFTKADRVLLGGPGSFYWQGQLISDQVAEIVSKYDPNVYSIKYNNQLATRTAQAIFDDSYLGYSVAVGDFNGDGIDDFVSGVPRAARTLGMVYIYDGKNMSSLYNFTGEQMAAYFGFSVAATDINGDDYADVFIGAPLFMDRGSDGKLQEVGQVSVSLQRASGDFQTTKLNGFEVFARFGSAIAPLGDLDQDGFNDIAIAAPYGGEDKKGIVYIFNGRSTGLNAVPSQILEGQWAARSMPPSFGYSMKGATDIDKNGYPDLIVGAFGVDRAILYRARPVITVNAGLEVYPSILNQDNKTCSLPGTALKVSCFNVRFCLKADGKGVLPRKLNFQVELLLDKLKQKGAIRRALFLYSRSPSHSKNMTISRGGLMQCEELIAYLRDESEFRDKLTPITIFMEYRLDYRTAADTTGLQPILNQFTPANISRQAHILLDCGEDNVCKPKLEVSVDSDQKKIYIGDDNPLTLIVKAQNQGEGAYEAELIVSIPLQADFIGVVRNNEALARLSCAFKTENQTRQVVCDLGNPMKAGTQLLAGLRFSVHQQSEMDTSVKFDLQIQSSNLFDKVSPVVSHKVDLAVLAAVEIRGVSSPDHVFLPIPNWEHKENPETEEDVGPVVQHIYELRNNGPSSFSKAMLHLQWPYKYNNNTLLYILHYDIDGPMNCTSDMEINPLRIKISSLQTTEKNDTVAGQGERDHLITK
T1 sequence (P06756 891-1048 partner limits assumed): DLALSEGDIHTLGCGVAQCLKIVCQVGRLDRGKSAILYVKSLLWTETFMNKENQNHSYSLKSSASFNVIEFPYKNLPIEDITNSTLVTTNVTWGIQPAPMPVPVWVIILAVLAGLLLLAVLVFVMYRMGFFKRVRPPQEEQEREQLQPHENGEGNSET
T1 sequence (P05556 21-798): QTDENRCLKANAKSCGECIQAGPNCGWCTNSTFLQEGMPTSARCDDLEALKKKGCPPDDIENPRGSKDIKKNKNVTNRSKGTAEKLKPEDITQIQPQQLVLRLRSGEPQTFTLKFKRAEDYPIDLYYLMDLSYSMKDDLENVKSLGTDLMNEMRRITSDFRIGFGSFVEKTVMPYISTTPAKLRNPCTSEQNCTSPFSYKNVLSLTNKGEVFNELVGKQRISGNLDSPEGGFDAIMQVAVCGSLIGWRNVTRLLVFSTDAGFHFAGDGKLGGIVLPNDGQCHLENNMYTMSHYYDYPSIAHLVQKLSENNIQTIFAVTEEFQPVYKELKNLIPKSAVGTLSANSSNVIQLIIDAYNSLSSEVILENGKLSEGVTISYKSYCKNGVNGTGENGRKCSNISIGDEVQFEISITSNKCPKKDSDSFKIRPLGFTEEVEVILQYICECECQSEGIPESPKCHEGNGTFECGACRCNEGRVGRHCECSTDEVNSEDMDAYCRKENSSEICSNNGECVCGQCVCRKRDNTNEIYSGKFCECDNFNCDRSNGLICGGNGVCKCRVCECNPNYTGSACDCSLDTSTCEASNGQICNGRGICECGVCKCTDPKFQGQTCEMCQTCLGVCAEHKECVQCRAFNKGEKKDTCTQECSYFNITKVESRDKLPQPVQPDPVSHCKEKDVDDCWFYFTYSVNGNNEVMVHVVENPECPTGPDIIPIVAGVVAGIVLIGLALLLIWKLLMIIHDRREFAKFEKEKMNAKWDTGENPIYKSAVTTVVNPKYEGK
Description: FAK phosphorylation in HEK293T cells with forced expression of integrin αV/β1. It is filed as cell-based. The protocol:
100 nM irisin was incubated with 5 nM indicated his-tag integrins followed by immunoprecipitation using Ni-NTA agaroses. Precipitated integrins and co-precipitated irisin were analyzed by immunoblot analysis. […] HEK293T cells were seeded and incubated until 50% cell density. The cells were transfected with 0.1 μg plasmids of indicated integrins. After 48 hours, the cells were re-split to indicated dose of vitronectin-coated plates. Cells were incubated with culture medium for 3 hours. Cells were lysed to detect the indicated protein level using immunoblot analysis. FIG. 15C and FIG. 15D show the immunoblot data. Cells were treated and analyzed as FIG. 14B except using plasmids encoding integrin α5/β1 or integrin α11/β1 (FIG. 15C) integrin αV/β1(FIG. 15D).
HEK293T cells were set up for experiments at 1×10^5 cells per well in 6 well plate. On day 2, cells were transiently transfected with the indicated plasmids with FuGENE® 6 reagent (Roche Applied Science) according to the manufacturer's protocol. […]
Cells were harvested in RIPA buffer containing protease-inhibitor cocktail and phosphataseinhibitor cocktail. […] Protein levels were analyzed via western blot using indicated antibody. […] Protein levels were analyzed using western blot against indicated antibody.

integrin αV/β5, sequence (P06756 31-889 limits assumed): as the sequence (P06756 31-889 limits assumed) above
integrin αV/β5, sequence (P06756 891-1048 partner limits assumed): as the sequence (P06756 891-1048 partner limits assumed) above
integrin αV/β5, sequence (P18084 24-799): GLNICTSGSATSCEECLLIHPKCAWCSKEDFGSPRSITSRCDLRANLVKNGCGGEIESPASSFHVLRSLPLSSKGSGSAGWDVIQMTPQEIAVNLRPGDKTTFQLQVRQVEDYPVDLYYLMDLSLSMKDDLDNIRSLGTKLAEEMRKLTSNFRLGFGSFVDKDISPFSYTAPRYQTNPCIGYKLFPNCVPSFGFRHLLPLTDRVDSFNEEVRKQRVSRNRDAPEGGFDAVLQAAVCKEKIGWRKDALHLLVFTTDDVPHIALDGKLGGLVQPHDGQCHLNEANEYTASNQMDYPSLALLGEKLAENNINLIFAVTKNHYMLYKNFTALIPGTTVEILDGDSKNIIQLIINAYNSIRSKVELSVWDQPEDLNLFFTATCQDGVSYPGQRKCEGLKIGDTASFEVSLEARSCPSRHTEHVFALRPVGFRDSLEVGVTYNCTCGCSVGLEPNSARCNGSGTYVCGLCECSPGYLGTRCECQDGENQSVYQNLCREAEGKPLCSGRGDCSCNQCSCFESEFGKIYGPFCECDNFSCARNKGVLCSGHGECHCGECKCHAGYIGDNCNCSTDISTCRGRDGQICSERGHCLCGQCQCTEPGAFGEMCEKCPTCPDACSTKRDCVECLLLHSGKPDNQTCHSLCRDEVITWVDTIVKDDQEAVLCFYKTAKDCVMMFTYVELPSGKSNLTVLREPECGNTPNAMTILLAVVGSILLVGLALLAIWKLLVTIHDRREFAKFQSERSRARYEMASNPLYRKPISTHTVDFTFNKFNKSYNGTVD

B1: irisin: secreted cleaved form of FNDC5; recombinant human/mouse irisin with C-terminal his tag produced in HEK293 cells (protein)
chain: DSPSAPVNVTVRHLKANSAVVSWDVLEDEVVIGFAISQQKKDVRMLRFIQEVNTTTRSCALWDLEEDTEYIVHVQAISIQGQSPASEPVLFKTPREAEKMASKNKDEVTMKE
modifications: left off: small tags and cut ends
notes: secreted cleaved form of FNDC5; recombinant human/mouse irisin with C-terminal his tag produced in HEK293 cells
Turning to B1, the “phosphorylation of FAK upon irisin treatment” value in assay [1] is listed as “enhanced level of phosphorylation of FAK”; in assay [2], “increased FAK phosphorylation”.
